In test [1] the target is HLA-DR1 (HLA-DRA*0101, HLA-DRB1*0101) (human). Nature of the test: ELISA.
Test [2] has the same target. Nature of the test: ELISA. This is another data set of the same source. For orientation: In an ELISA, binding on a coated surface is turned into a signal by an enzyme label.

Read-outs that look alike come from different tables or passages of the source.

In general, IC50 refers to the midpoint of a concentration-inhibition curve. A lower IC50 goes with higher potency.

As to “SARS-CoV-2 Spike peptide S761-775 (Omicron BA.1)”, the IC50 in test [1] was 6.78 µM.

Take “SARS-CoV-2 Spike peptide S486-505 (Omicron BA.1)”: in test [1], the IC50 was 0.754 µM.

In the case of “SARS-CoV-2 Spike peptide S761-775 (Wuhan HU-1)”, in test [2], the IC50 was above 10 µM.
